Patent US20260209348A1 (University of California, published 2026)
Read-outs that look alike come from different tables or passages of the source.

Columns and labels:
human ROR2 [1] = target: T1, human ROR2 (human, UniProt Q01974 34-403, limits assumed); experiment: SPR
Method in brief: (§1)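 Humanized monoclonal antibodies against human ROR2, made by transferring murine complementarity-determining regions into human acceptor frameworks with the constant region switched to human IgG1, were assessed by surface plasmon resonance. Their affinity for human ROR2 is expressed as the dissociation constant (Kd) in nM.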

human ROR2 [2] = target: T1, human ROR2; experiment: SPR; remark: listed apart in the source
Method in brief: as §1

[3] = target: T2, recombinant human ROR2 H349R (human, UniProt Q01974 34-403); experiment: dot blot on nylon membrane, anti-human IgG-HRP
T2 construct: Human residue replaced with the mouse residue

[4] = target: T3, recombinant mouse ROR2 (extracellular portion) (mouse, UniProt Q9Z138 34-403); experiment: dot blot on nylon membrane, anti-human IgG-HRP
T3 construct: also called mROR2

[5] = target: recombinant human ROR2 D354E (human, UniProt Q01974 34-403); experiment: dot blot on nylon membrane, anti-human IgG-HRP
recombinant ROR1 = recombinant ROR1 (Homo sapiens (Human), UniProt Q01973 30-406); experiment: dot blot on nylon membrane, anti-human IgG-HRP
human ROR2 [6] = target: T1, human ROR2; experiment: SPR; remark: listed apart in the source

T2 sequence (Q01974 34-403 H349R limits assumed): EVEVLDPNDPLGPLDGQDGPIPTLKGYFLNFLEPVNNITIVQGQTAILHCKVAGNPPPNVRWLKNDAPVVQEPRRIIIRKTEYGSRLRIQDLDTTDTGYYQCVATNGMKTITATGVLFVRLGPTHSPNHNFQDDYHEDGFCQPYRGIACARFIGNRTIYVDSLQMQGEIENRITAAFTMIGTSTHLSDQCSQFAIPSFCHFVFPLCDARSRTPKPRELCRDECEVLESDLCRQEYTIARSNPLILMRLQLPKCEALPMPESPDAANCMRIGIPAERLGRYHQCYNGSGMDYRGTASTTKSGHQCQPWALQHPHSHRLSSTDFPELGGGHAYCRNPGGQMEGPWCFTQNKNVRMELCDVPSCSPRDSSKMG
Chain of recombinant human ROR2 D354E (Q01974 34-403 D354E limits assumed): as the sequence (Q01974 34-403 H349R limits assumed) above, with R316H, D321E counted along it
T1 sequence (Q01974 34-403 limits assumed): as the sequence (Q01974 34-403 H349R limits assumed) above, with R316H counted along it
Chain of recombinant ROR1 (Q01973 30-406 limits assumed): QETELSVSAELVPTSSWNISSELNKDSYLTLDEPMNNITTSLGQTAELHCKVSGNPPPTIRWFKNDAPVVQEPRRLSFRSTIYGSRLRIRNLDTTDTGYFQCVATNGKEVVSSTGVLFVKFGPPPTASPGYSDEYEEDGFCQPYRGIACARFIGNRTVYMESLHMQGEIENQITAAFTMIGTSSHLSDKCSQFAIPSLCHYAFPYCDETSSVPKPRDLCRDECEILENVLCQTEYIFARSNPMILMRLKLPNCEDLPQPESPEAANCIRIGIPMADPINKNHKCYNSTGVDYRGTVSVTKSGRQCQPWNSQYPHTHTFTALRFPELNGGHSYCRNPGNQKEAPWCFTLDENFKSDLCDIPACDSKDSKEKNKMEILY
T3 sequence (Q9Z138 other isoform, or with tags, fused parts or gaps limits assumed): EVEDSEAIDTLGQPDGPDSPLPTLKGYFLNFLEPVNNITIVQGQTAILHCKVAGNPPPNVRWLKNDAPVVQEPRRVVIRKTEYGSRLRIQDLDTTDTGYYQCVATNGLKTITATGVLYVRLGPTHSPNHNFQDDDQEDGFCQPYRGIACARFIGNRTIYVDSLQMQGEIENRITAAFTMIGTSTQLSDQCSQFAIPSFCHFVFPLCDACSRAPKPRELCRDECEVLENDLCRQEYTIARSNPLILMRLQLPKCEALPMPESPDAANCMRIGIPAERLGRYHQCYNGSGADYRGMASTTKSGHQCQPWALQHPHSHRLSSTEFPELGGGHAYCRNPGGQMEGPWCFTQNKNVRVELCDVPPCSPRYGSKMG

B1: h6E6-007 (antibody, human IgG1, V domains shown)
VH: EVQLVESGGGLVKPGGSLRLSCAASGFTFSGYGLSWVRQAPGKGLEWVSTISSGGGYTHYAPSVKGRFTISRDNAKNSLYLQMNSLRAEDTAVYYCARHPRDFSYAQDYWGQGTTVTVSS
VL: EIVMTQSPATLSVSPGERATLSCKASQDVGHYVAWYQQKPGQAPRLLIYWASTRATGIPARFSGSGSGTEFTLTISSLQSEDFAVYYCQQYNIYPWTFGQGTKVEIK
notes: human IgG1; also called clone 7
With B1 the Kd (human ROR2 [1]) was 0.318 nM, the Kd (human ROR2 [2]) was 0.318 nM and the binding result [3] was “no binding”. B1: no binding [4]; no binding [5]; no binding (recombinant ROR1).

B2: h6E6-029 (antibody, human IgG1, V domains shown)
VH: EVQLVESGGGLVKPGGSLRLSCAASGFTFSHYGVSWVRQAPGKGLEWVSTISSGGGYTHYAQSVKGRFTISRDNAKNSLYLQMNSLRAEDTAVYYCARHPRDFSYAQDYWGQGTTVTVSS
VL: EIVMTQSPATLSVSPGERATLSCKASQDVGHYVAWYQQKPGQAPRLLIYWASTRHTGIPARFSGSGSGTEFTLTISSLQSEDFAVYYCQQYNIYPWTFGQGTKVEIK
notes: human IgG1; also called clone 29
In the case of B2, the Kd (human ROR2 [1]) is reported as 0.079 nM, the Kd (human ROR2 [2]) is reported as 0.079 nM and the binding result [3] is reported as “no binding”. B2: no binding [4]; no binding [5]; no binding (recombinant ROR1).

B3: h6E6-040 (antibody, human IgG1, V domains shown)
VH: EVQLVESGGGLVKPGGSLRLSCAASGFTFSSYGHSWVRQAPGKGLEWVSTISSGGGYTHYAPSVKGRFTISRDNAKNSLYLQMNSLRAEDTAVYYCARHPRDFSYAHDYWGQGTTVTVSS
VL: EIVMTQSPATLSVSPGERATLSCRASQDVGHYVAWYQQKPGQAPRLLIYWASTRATGIPARFSGSGSGTEFTLTISSLQSEDFAVYYCQQYNIYPWTFGQGTKVEIK
notes: human IgG1; also called clone 40
In the case of B3, the Kd (human ROR2 [1]) is reported as 0.186 nM, the Kd (human ROR2 [2]) is reported as 0.186 nM and the binding result [3] is reported as “no binding”. B3: no binding [4]; no binding [5]; no binding (recombinant ROR1).

B4: h6E6-055 (antibody, human IgG1, V domains shown)
VH: EVQLVESGGGLVKPGGSLRLSCAASGFTFSQYGHSWVRQAPGKGLEWVSTISSGGGYTHYAESVKGRFTISRDNAKNSLYLQMNSLRAEDTAVYYCARHPRDFSYAQDYWGQGTTVTVSS
VL: EIVMTQSPATLSVSPGERATLSCKASQDVGHYLAWYQQKPGQAPRLLIYWASTRATGIPARFSGSGSGTEFTLTISSLQSEDFAVYYCQQYNIYPWTFGQGTKVEIK
notes: human IgG1; also called clone 55
In the case of B4, the Kd (human ROR2 [1]) is reported as 0.261 nM, the Kd (human ROR2 [2]) is reported as 0.261 nM and the binding result [3] is reported as “no binding”. B4: no binding [4]; no binding [5]; no binding (recombinant ROR1).

B5: h6E6-056 (antibody, human IgG1, V domains shown)
VH: EVQLVESGGGLVKPGGSLRLSCAASGFTFSKYGTSWVRQAPGKGLEWVSTISSGGGYTHYAPSVKGRFTISRDNAKNSLYLQMNSLRAEDTAVYYCARHPRDFSYAQDYWGQGTTVTVSS
VL: EIVMTQSPATLSVSPGERATLSCRASQDVGHYVAWYQQKPGQAPRLLIYWASTRATGIPARFSGSGSGTEFTLTISSLQSEDFAVYYCQQYNIYPWTFGQGTKVEIK
notes: human IgG1; also called clone 56
With B5 the Kd (human ROR2 [1]) was 0.024 nM, the Kd (human ROR2 [2]) was 0.024 nM and the binding result [3] was “no binding”. B5: no binding [4]; no binding [5]; no binding (recombinant ROR1).

B6: grafted humanized 6E6: VH3-21*01 (IMGT) + VK1-12*01 (IMGT) (antibody, V domains shown)
VH: EVQLVESGGGLVKPGGSLRLSCAASGFTFSNYGMNWVRQAPGKGLEWVSSISSGGGYTYYADSVKGRFTISRDNAKNSLYLQMNSLRAEDTAVYYCARHPRDFSYAMDYWGQGTTVTVSS
VL: DIQMTQSPSSVSASVGDRVTITCRASQDVGHYLAWYQQKPGKAPKLLIYWASSLQSGVPSRFSGSGSGTDFTLTISSLQPEDFATYYCQQYNIYPWTFGQGTKVEIK
notes: expressed as IgG
B6: no binding (human ROR2 [6]).

B7: grafted humanized 6E6: VH3-21*01 (IMGT) + VK1-12*01 (extended) (antibody, V domains shown)
VH: EVQLVESGGGLVKPGGSLRLSCAASGFTFSNYGMNWVRQAPGKGLEWVSSISSGGGYTYYADSVKGRFTISRDNAKNSLYLQMNSLRAEDTAVYYCARHPRDFSYAMDYWGQGTTVTVSS
VL: DIQMTQSPSSVSASVGDRVTITCKASQDVGHYVAWYQQKPGKAPKLLIYWASTRHTGVPSRFSGSGSGTDFTLTISSLQPEDFATYYCQQYNIYPWTFGQGTKVEIK
notes: expressed as IgG
B7: no binding (human ROR2 [6]).

B8: grafted humanized 6E6: VH3-21*01 (extended) + VK1-8*01 (IMGT) (antibody, V domains shown)
VH: EVQLVESGGGLVKPGGSLRLSCAASGFTFSNYGMSWVRQAPGKGLEWVSTISSGGGYTHYVDSVKGRFTISRDNAKNSLYLQMNSLRAEDTAVYYCARHPRDFSYAMDYWGQGTTVTVSS
VL: AIRMTQSPSSFSASTGDRVTITCRASQDVGHYLAWYQQKPGKAPKLLIYWASTLQSGVPSRFSGSGSGTDFTLTISCLQSEDFATYYCQQYNIYPWTFGQGTKVEIK
notes: expressed as IgG
B8 was tested, and the Kd (human ROR2 [6]) was 10 nM.

B9: grafted humanized 6E6: VH3-21*01 (extended) + VK1-12*01 (extended) (antibody, V domains shown)
VH: EVQLVESGGGLVKPGGSLRLSCAASGFTFSNYGMSWVRQAPGKGLEWVSTISSGGGYTHYVDSVKGRFTISRDNAKNSLYLQMNSLRAEDTAVYYCARHPRDFSYAMDYWGQGTTVTVSS
VL: DIQMTQSPSSVSASVGDRVTITCKASQDVGHYVAWYQQKPGKAPKLLIYWASTRHTGVPSRFSGSGSGTDFTLTISSLQPEDFATYYCQQYNIYPWTFGQGTKVEIK
notes: expressed as IgG
B9 was tested, and the Kd (human ROR2 [6]) was 0.67 nM.

B10: grafted humanized 6E6: VH3-11*03 (IMGT) + VK3-15*01 (IMGT) (antibody, V domains shown)
VH: QVQLLESGGGLVKPGGSLRLSCAASGFTFSNYGMSWIRQAPGKGLEWVSYISSGGGYTNYADSVKGRFTISRDNAKNSLYLQMNSLRAEDTAVYYCARHPRDFSYAMDYWGQGTTVTVSS
VL: EIVMTQSPATLSVSPGERATLSCRASQDVGHYLAWYQQKPGQAPRLLIYWASTRATGIPARFSGSGSGTEFTLTISSLQSEDFAVYYCQQYNIYPWTFGQGTKVEIK
notes: expressed as IgG
B10 gave a Kd (human ROR2 [6]) of 64 nM.

B11: grafted humanized 6E6: VH3-11*03 (extended) + VK3-15*01 (IMGT) (antibody, V domains shown)
VH: QVQLLESGGGLVKPGGSLRLSCAASGFTFSNYGMSWIRQAPGKGLEWVSTISSGGGYTHYVDSVKGRFTISRDNAKNSLYLQMNSLRAEDTAVYYCARHPRDFSYAMDYWGQGTTVTVSS
VL: EIVMTQSPATLSVSPGERATLSCRASQDVGHYLAWYQQKPGQAPRLLIYWASTRATGIPARFSGSGSGTEFTLTISSLQSEDFAVYYCQQYNIYPWTFGQGTKVEIK
notes: expressed as IgG
With B11 the Kd (human ROR2 [6]) was 1.1 nM.

B12: grafted humanized 6E6: VH3-21*01 (IMGT) + VK3-15*01 (IMGT) (antibody, V domains shown)
VH: EVQLVESGGGLVKPGGSLRLSCAASGFTFSNYGMNWVRQAPGKGLEWVSSISSGGGYTYYADSVKGRFTISRDNAKNSLYLQMNSLRAEDTAVYYCARHPRDFSYAMDYWGQGTTVTVSS
VL: EIVMTQSPATLSVSPGERATLSCRASQDVGHYLAWYQQKPGQAPRLLIYWASTRATGIPARFSGSGSGTEFTLTISSLQSEDFAVYYCQQYNIYPWTFGQGTKVEIK
notes: expressed as IgG
B12: no binding (human ROR2 [6]).

B13: grafted humanized 6E6: VH3-21*01 (extended) + VK3-15*01 (IMGT) (antibody, V domains shown)
VH: EVQLVESGGGLVKPGGSLRLSCAASGFTFSNYGMSWVRQAPGKGLEWVSTISSGGGYTHYVDSVKGRFTISRDNAKNSLYLQMNSLRAEDTAVYYCARHPRDFSYAMDYWGQGTTVTVSS
VL: EIVMTQSPATLSVSPGERATLSCRASQDVGHYLAWYQQKPGQAPRLLIYWASTRATGIPARFSGSGSGTEFTLTISSLQSEDFAVYYCQQYNIYPWTFGQGTKVEIK
notes: expressed as IgG
B13 was tested, and the Kd (human ROR2 [6]) was 0.58 nM.

B14: grafted humanized 6E6: VH3-11*03 (IMGT) + VK1-8*01 (IMGT) (antibody, V domains shown)
VH: QVQLLESGGGLVKPGGSLRLSCAASGFTFSNYGMSWIRQAPGKGLEWVSYISSGGGYTNYADSVKGRFTISRDNAKNSLYLQMNSLRAEDTAVYYCARHPRDFSYAMDYWGQGTTVTVSS
VL: AIRMTQSPSSFSASTGDRVTITCRASQDVGHYLAWYQQKPGKAPKLLIYWASTLQSGVPSRFSGSGSGTDFTLTISCLQSEDFATYYCQQYNIYPWTFGQGTKVEIK
notes: expressed as IgG
B14: no binding (human ROR2 [6]).
